Test results as given in the Immune Epitope Database (IEDB).

Legend:
[1] = target: HLA-B*40:01; assay: IEDB peptide-MHC binding, purified MHC/competitive/radioactivity; filed as Kd, often an IC50 or EC50 that approximates it; ≥ and ≤ were set here for values at or beyond the usual limits of such assays
[2] = target: HLA-B*44:03; assay: as above
[3] = target: HLA-B*45:01; assay: as above
[4] = target: HLA-B*18:01; assay: as above
[5] = target: HLA-B*40:02; assay: as above
[6] = target: HLA-B*44:02; assay: as above
[7] = target: HLA-B*18:01; assay: IEDB peptide-MHC binding, purified MHC/direct/fluorescence; filed as Kd, often an IC50 or EC50 that approximates it; ≥ and ≤ were set here for values at or beyond the usual limits of such assays
[8] = target: HLA-B*40:01; assay: as above; settings: source organism: West Nile virus
[9] = target: HLA-A*26:01; assay: IEDB peptide-MHC binding, purified MHC/competitive/fluorescence; filed as Kd, often an IC50 or EC50 that approximates it; ≥ and ≤ were set here for values at or beyond the usual limits of such assays; settings: source organism: Bacillus anthracis str. A0488
[10] = target: HLA-B*51:01; assay: as above
[11] = target: HLA-A*68:02; assay: IEDB peptide-MHC binding, purified MHC/competitive/radioactivity; filed as Kd, often an IC50 or EC50 that approximates it; ≥ and ≤ were set here for values at or beyond the usual limits of such assays
[12] = target: HLA-A*26:01; assay: as above; settings: source organism: Dengue virus 2 Jamaica/1409/1983
[13] = target: HLA-A*02:02; assay: as above
[14] = target: HLA-A*02:03; assay: as above
[15] = target: HLA-A*02:06; assay: as above
[16] = target: HLA-B*51:01; assay: as above; settings: source organism: Dengue virus 4 Dominica/814669/1981
[17] = target: HLA-B*44:02; assay: IEDB peptide-MHC binding, purified MHC/direct/fluorescence; filed as Kd, often an IC50 or EC50 that approximates it; ≥ and ≤ were set here for values at or beyond the usual limits of such assays; settings: source organism: Dengue virus
[18] = target: HLA-A*02:01; assay: IEDB peptide-MHC binding, purified MHC/competitive/radioactivity; filed as Kd, often an IC50 or EC50 that approximates it; ≥ and ≤ were set here for values at or beyond the usual limits of such assays
[19] = target: HLA-B*15:01; assay: IEDB peptide-MHC binding, purified MHC/competitive/fluorescence; filed as Kd, often an IC50 or EC50 that approximates it; ≥ and ≤ were set here for values at or beyond the usual limits of such assays; settings: source organism: Bacillus anthracis str. A2012
[20] = target: HLA-B*46:01; assay: as above; settings: source organism: Shigella flexneri 5 str. 8401
[21] = target: HLA-A*01:01; assay: IEDB peptide-MHC binding, purified MHC/competitive/radioactivity; filed as Kd, often an IC50 or EC50 that approximates it; ≥ and ≤ were set here for values at or beyond the usual limits of such assays; settings: source organism: Dengue virus 4 Philippines/H241/1956
[22] = source organism: SARS coronavirus Tor2
[23] = source organism: Mammarenavirus juninense
[24] = source organism: Mammarenavirus lassaense
[25] = source organism: West Nile virus
[26] = source organism: Trypanosoma cruzi
[27] = source organism: Dengue virus 4 Dominica/814669/1981
[28] = source organism: Mammarenavirus brazilense
[29] = source organism: Lassa virus Josiah
[30] = source organism: Lymphocytic choriomeningitis virus (strain Armstrong)

ADYSVLYNST was tested, and the Kd [1, 22] was ≥ 69600 nM, the Kd [2, 22] was ≥ 45700 nM and the Kd [3, 22] was 768 nM. The Kd [4, 22] was ≥ 70500 nM, the Kd [5, 22] was ≥ 30200 nM and the Kd [6, 22] was 1970 nM.

For DELPFVAPV, the Kd ([7]; source organism: Burkholderia ambifaria AMMD) was 0.6 nM.

In the case of EDIDSVETL, the Kd [1, 23] is reported as 1880 nM, the Kd [2, 23] is reported as ≥ 28300 nM and the Kd [3, 23] is reported as ≥ 24300 nM. The Kd [4, 23] was 14400 nM, the Kd [5, 23] was 1250 nM and the Kd [6, 23] was 12300 nM.

In the case of EELITDVEFL, the Kd [1, 24] is reported as 3120 nM, the Kd [2, 24] is reported as 6370 nM and the Kd [3, 24] is reported as 17900 nM. It also gave a Kd [4, 24] of 19000 nM, a Kd [5, 24] of 9850 nM and a Kd [6, 24] of 5160 nM.

With EERKNFLEL the Kd [8] was ≥ 20000 nM and the Kd [7, 25] was 48.4 nM.

For EGIYKLSSM, the Kd [9] was 43.1 nM.

In the case of EPYPPKGPV, the Kd ([10]; source organism: Vibrio vulnificus YJ016) is reported as 828 nM.

EVKKQRAGV showed a Kd ([11]; source organism: Dengue virus 2 Jamaica/1409/1983) of 61.6 nM and a Kd [12] of 9120 nM.

With FANNKFTLV the Kd [13, 26] was 64.1 nM, the Kd [11, 26] was 75 nM and the Kd [14, 26] was 1.36 nM. It also gave a Kd [15, 26] of 3.05 nM.

Work on FPSVRYQNI yielded a Kd ([10]; source organism: Yersinia pestis KIM10+) of 1020 nM.

With FTVQADMGCV the Kd [11, 27] was 3.55 nM, the Kd [15, 27] was 110 nM and the Kd [16] was ≥ 59200 nM.

Sequence FVDYNFSLV has a Kd [13, 26] of 0.503 nM, a Kd [11, 26] of 75.5 nM and a Kd [14, 26] of 4.24 nM. The Kd [15, 26] was 0.655 nM.

GDRWFLNRFT was tested, and the Kd [1, 22] was ≥ 69600 nM, the Kd [2, 22] was ≥ 70100 nM and the Kd [3, 22] was ≥ 70000 nM. For the same sequence, the Kd [4, 22] was ≥ 70500 nM, the Kd [5, 22] was ≥ 70800 nM and the Kd [6, 22] was ≥ 70200 nM.

GEDGCWYGM was tested, and the Kd ([7]; source organism: Dengue virus) was 1260 nM and the Kd [17] was ≥ 20000 nM.

In the case of GEPKMTKAL, the Kd [1, 24] is reported as 1770 nM, the Kd [2, 24] is reported as ≥ 49900 nM and the Kd [3, 24] is reported as ≥ 68100 nM. The Kd [4, 24] was ≥ 77500 nM, the Kd [5, 24] was 178 nM and the Kd [6, 24] was ≥ 20300 nM.

In the case of GITRPTTLV, the Kd [13, 26] is reported as 13700 nM, the Kd [11, 26] is reported as 11900 nM and the Kd [14, 26] is reported as 1150 nM. The Kd [18, 26] was ≥ 92600 nM and the Kd [15, 26] was 12200 nM.

With HENKNATWCL the Kd [1, 28] was 915 nM, the Kd [2, 28] was 15300 nM and the Kd [3, 28] was 5060 nM. For the same sequence, the Kd [4, 28] was 16600 nM, the Kd [5, 28] was 54.4 nM and the Kd [6, 28] was 4540 nM.

In the case of HVGRPTTVV, the Kd [13, 26] is reported as 1060 nM, the Kd [11, 26] is reported as 21.1 nM and the Kd [14, 26] is reported as 452 nM. For the same sequence, the Kd [18, 26] was 9860 nM and the Kd [15, 26] was 639 nM.

IAIEFKSRF was tested, and the Kd [19] was 279 nM.

IALSVLAVL was tested, and the Kd [18, 29] was 1920 nM.

For IEVALRTLLL, the Kd [1, 30] was 1290 nM, the Kd [2, 30] was 1830 nM and the Kd [3, 30] was ≥ 70000 nM. It also gave a Kd [4, 30] of 1710 nM, a Kd [5, 30] of 24.1 nM and a Kd [6, 30] of 9310 nM.

Work on IISLWDQSL yielded a Kd ([18]; source organism: HIV-1 M:B_MN) of 279 nM.

IPVEPAFQV showed a Kd ([10]; source organism: Vibrio antiquarius) of 254 nM.

Work on KETSYTTTI yielded a Kd [1, 22] of 20.7 nM, a Kd [2, 22] of 125 nM and a Kd [3, 22] of 183 nM. The Kd [4, 22] was ≥ 77500 nM, the Kd [5, 22] was 59.6 nM and the Kd [6, 22] was 90.8 nM.

In the case of LAMYHGQTY, the Kd [20] is reported as ≥ 20000 nM.

For LEQWNLVIGF, the Kd [1, 22] was 3940 nM, the Kd [2, 22] was 48.8 nM and the Kd [3, 22] was 3980 nM. The Kd [4, 22] was 155 nM, the Kd [5, 22] was 565 nM and the Kd [6, 22] was 16.1 nM.

In the case of LTYSQLMTL, the Kd [13, 29] is reported as 11.1 nM, the Kd [11, 29] is reported as 103 nM and the Kd [14, 29] is reported as 7.81 nM. The Kd [18, 29] was 227 nM and the Kd [15, 29] was 57.8 nM.

Sequence MEEPAPAGF has a Kd [8] of 2570 nM and a Kd [7, 25] of 19.8 nM.

With MTTEDMLKV the Kd [21] was ≥ 22800 nM and the Kd ([11]; source organism: Dengue virus 4 Philippines/H241/1956) was 41.8 nM.
